Measured values from patent US20070275898A1 (CENTRE NATIONAL DE LA RECHERCHE SCIENTIFIQUE, published 2007).

Target: β subunit of DNA polymerase III of Escherichia coli (Escherichia coli, UniProt P0A988 1-366)
Test: cell-based or functional assay

Chain of β subunit of DNA polymerase III of Escherichia coli (P0A988 whole entry): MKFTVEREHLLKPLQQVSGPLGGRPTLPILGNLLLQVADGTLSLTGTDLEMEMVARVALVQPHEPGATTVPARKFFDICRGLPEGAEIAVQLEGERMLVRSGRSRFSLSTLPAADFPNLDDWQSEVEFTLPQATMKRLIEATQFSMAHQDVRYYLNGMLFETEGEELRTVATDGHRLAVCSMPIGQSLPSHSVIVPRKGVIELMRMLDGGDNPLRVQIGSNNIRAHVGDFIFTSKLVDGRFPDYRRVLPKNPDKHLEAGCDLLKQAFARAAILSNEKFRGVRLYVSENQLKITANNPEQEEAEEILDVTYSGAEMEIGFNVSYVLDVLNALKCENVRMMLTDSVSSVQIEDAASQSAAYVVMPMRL

β-dependent Pol IV activity (ratio of β-dependent to β-independent polymerase activities): ~30 fold decrease
Binder: VTLLDPQMERQLVLGL [P16 peptide, the 16 last residues of Pol IV DNA polymerase of E. coli]
